Data: patent US20210162029A1

Target: T1, KLK14 (UniProt Q9P0G3)
T1 sequence (looked up): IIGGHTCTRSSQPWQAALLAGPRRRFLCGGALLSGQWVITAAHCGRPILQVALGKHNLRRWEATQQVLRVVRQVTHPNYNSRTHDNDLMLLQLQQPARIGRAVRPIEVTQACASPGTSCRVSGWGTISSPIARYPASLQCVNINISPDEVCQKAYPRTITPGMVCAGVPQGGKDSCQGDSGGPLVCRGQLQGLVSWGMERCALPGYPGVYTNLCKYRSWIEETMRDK
Assay: cell-based or functional assay

B1: LEKTI Domain 6 (protein)
chain: ESGKATSYAELCSEYRKLVRNGKLACTRENDPIQGPDGKVHGNTCSMCEVFFQAEEEEKKKKEGKSRN
Work on B1 yielded a % inhibition (mean) of KLK14 (30 nM) evoked FLIPR signal in TRPV1 cells; LEKTI D6 at 0.003 µM of -4%, a % inhibition (mean) of KLK14 (30 nM) evoked FLIPR signal in TRPV1 cells; LEKTI D6 at 0.01 µM of 21.6% and a % inhibition (mean) of KLK14 (30 nM) evoked FLIPR signal in TRPV1 cells; LEKTI D6 at 0.03 µM of -11.1%. It also gave a % inhibition (mean) of KLK14 (30 nM) evoked FLIPR signal in TRPV1 cells; LEKTI D6 at 0.1 µM of 12.4%, a % inhibition (mean) of KLK14 (30 nM) evoked FLIPR signal in TRPV1 cells; LEKTI D6 at 0.3 µM of 16.8% and a % inhibition (mean) of KLK14 (30 nM) evoked FLIPR signal in TRPV1 cells; LEKTI D6 at 1 µM of 46.9%. The % inhibition (mean) of KLK14 (30 nM) evoked FLIPR signal in TRPV1 cells; LEKTI D6 at 3 µM was 56.4%, the % inhibition (mean) of KLK14 (30 nM) evoked FLIPR signal in TRPV1 cells; LEKTI D6 at 10 µM was 39.3% and the % inhibition (mean) of KLK14 (30 nM) evoked FLIPR signal in TRPV4 cells; LEKTI D6 at 0.003 µM was -24.1%. For the same binder, the % inhibition (mean) of KLK14 (30 nM) evoked FLIPR signal in TRPV4 cells; LEKTI D6 at 0.01 µM was -11%, the % inhibition (mean) of KLK14 (30 nM) evoked FLIPR signal in TRPV4 cells; LEKTI D6 at 0.03 µM was 9.9% and the % inhibition (mean) of KLK14 (30 nM) evoked FLIPR signal in TRPV4 cells; LEKTI D6 at 0.1 µM was 6.4%. For the same binder, the % inhibition (mean) of KLK14 (30 nM) evoked FLIPR signal in TRPV4 cells; LEKTI D6 at 0.3 µM was 1.5%, the % inhibition (mean) of KLK14 (30 nM) evoked FLIPR signal in TRPV4 cells; LEKTI D6 at 1 µM was 6.3% and the % inhibition (mean) of KLK14 (30 nM) evoked FLIPR signal in TRPV4 cells; LEKTI D6 at 3 µM was 26.7%. It also gave a % inhibition (mean) of KLK14 (30 nM) evoked FLIPR signal in TRPV4 cells; LEKTI D6 at 10 µM of 73%.
